The results in this text go back to patent publication US11478551B2, “Long-acting adrenomedullin derivative” (University of Miyazaki, priority 2015, dated 2022).

Marks after values point to notes of the source that are not given here.

Data set [1] is described as follows: Measurement over time of AM concentration in plasma after subcutaneous administration (RIA). Conditions: rat. It counts as in vivo. As to the method:
1 day, 7 days and 10 days after the start of the administration, 50 mg of pentobarbital was intraperitoneally administered, and 300 μL of blood was collected each time from the tail vain under anesthesia. Immediately, 300 μg of EDTA-2Na and […] of aprotinin were added to the obtained blood sample, and the mixture was centrifuged under conditions involving 10 minutes and 3000 rpm to obtain plasma. The AM concentration in the plasma of each sample was measured by radioimmunoassay (RIA) (Kitamura K, Ichiki Y, Tanaka M et al., Immunoreactive adrenomedullin in human plasma. FEBS Lett., vol. 341, p. 288-90, 1994).
The compound (37) prepared in experiment III-1 was subcutaneously administered in a single dose of 30 nmol/kg to each rat, and time-dependent change in the concentration in blood of the adrenomedullin derivative was observed. The compound (37) dissolved in physiological saline was subcutaneously administered to each 7- to 8-week-old male Wistar rat (approximately 250 g). 1 day, 2 days, 4 days, 7 days and 9 days after the start of the administration, 50 mg of pentobarbital was intraperitoneally administered, and 300 μL of blood was collected each time from the tail vain under anesthesia. Immediately, 300 μg of EDTA-2Na and […] of aprotinin were added to the obtained blood sample, and the mixture was centrifuged under conditions involving 10 minutes and 3000 rpm to obtain plasma. The AM concentration in the plasma of each sample was measured by RIA.

For the next data set, the system named is Wistar rat. The experiment in a line: Blood pressure-lowering effect, single intravenous dose in rat under anesthesia. It is filed as in vivo. Conditions: 1 nmol/kg, single dose into the vein. As to the method: Each compound prepared in experiments I-1 and II-1 or full-length AM was administered in a single dose of 1 nmol/kg into the vein of each rat under anesthesia, and change in the blood pressure of the rat was observed. Each 11 to 14-week-old male Wistar rat was anesthetized by the inhalation of isoflurane. After tracheotomy, inhalational anesthesia was controlled at an isoflurane concentration of 1.5 to 2.5% and a flow rate of 0.6 to 0.8 L/min. The right jugular vein was isolated from the rat, and a catheter tube corresponding to 26 G was inserted thereto. Next, the left carotid artery was isolated from the rat thus treated, and a catheter tube corresponding to 23 G was inserted thereto. From the catheter tube of the right jugular vein, a physiological saline-heparin solution (physiological saline: 100 mL; heparin: 1000 units) was infused at 2.4 mL/hr. […] The catheter inserted in the carotid artery was connected to a pressure transducer. […] In the diagram, the ordinate depicts a difference obtained by subtracting the average blood pressure before the administration of each drug from the average blood pressure at the time of the administration of each drug.

For another data set, the target named is T1, AM receptor (Homo sapiens, UniProt O60895+Q16602).
T1 construct: expressed in transfected cells; host or cells: HEK293 cell line
T1 sequence (Q16602 23-461): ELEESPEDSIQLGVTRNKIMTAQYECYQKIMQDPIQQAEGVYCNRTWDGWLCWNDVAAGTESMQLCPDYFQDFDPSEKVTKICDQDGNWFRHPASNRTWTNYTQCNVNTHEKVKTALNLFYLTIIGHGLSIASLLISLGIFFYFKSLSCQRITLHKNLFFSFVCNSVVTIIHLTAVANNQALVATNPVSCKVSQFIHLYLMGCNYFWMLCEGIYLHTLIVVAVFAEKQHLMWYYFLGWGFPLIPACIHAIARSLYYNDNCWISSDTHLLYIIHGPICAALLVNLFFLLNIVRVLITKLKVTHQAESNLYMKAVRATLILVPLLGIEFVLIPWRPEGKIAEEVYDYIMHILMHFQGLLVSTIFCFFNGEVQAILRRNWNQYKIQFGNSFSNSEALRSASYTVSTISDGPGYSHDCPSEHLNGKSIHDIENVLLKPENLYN
T1 sequence (O60895 43-175): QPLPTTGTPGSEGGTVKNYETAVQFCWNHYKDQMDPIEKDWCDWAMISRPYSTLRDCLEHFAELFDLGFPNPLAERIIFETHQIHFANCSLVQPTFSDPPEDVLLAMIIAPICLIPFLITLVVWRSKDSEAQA
The experiment in a line: Intracellular cAMP concentration-increasing effect in HEK293 cell line caused to express an AM receptor.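 Further: cAMP inside confluent receptor-expressing cells quantified by ELISA after 15 min exposure to each peptide at 10^−8 mol/L alongside 0.5 mM IBMX.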 It is filed as cell-based. The conditions noted are these: 10^−8 mol/L, 15 minutes, 0.5 mM IBMX; percentage with respect to h.AM (1-52)-Gly.

Data set [2] concerns spontaneously hypertensive rat (SHR). The experiment in a line: Effect of suppressing increase in blood pressure in spontaneously hypertensive rat (SHR)-(2). It is filed as in vivo. The conditions noted are these: 30 nmol/kg subcutaneous single dose, 4 days and 9 days after administration. On the procedure: The compound (37) prepared in experiment III-1 was subcutaneously administered in a single dose of 30 nmol/kg to each SHR, and the blood pressure increase-suppressing effect of the adrenomedullin derivative was observed. The compound (37) was administered in a form dissolved in physiological saline to each 8-week-old male SHR (approximately 200 g). […] of physiological saline was subcutaneously administered in a single dose to each male SHR (approximately 200 g) in the same condition as above in a control group. The blood pressure was measured over time (1 day before and 4 days and 9 days after the administration of the compound (37) or physiological saline). The values of change in the blood pressure obtained 4 days and 9 days after the administration of the compound (37) or physiological saline with respect to the average systolic blood pressure on the day before the administration are shown in FIG. 10.

Where [3] appears, read: 10 nmol/kg subcutaneous single dose, 7 days later.

Protocol for AM receptor: 10^−8 mol/L of each compound, h.AM (1-52), h.AM (6-52), h.AM (11-52), h.AM (16-52), or h.AM (1-52)-Gly was added to confluent HEK293 cells (cell count: 5×10^4) in the presence of 0.5 mM IBMX and incubated for 15 minutes. Then, the intracellular cAMP concentration in the HEK293 cells of each test zone was measured using an ELISA kit for cAMP measurement (GE Healthcare Japan Corp., #RPN2251).

Consider `CC[C@H](C)[C@H](NC(=O)[C@H](CCC(N)=O)NC(=O)[C@H](Cc1c[nH]cn1)NC(=O)[C@H](C)NC(=O)[C@H](CC(C)C)NC(=O)[C@H](CCCCN)NC(=O)[C@H](CCC(N)=O)NC(=O)[C@@H](NC(=O)[C@@H](NC(=O)[C@@H]1CSSC[C@H](NC(=O)CNC(=O)[C@H](Cc2ccccc2)NC(=O)[C@H](CO)NC(=O)[C@H](CCCNC(=N)N)NC(=O)[C@H](CC(C)C)NC(=O)CNC(=O)[C@H](CCC(N)=O)NC(=O)[C@H](Cc2ccccc2)NC(=O)[C@H](CC(N)=O)NC(=O)[C@H](CC(N)=O)NC(=O)[C@H](CCSC)NC(=O)[C@H](CO)NC(=O)[C@H](CCC(N)=O)NC(=O)[C@H](CCCNC(=N)N)NC(=O)[C@@H](N)Cc2ccc(O)cc2)C(=O)N[C@@H](CCCNC(=N)N)C(=O)N[C@@H](Cc2ccccc2)C(=O)NCC(=O)N[C@@H]([C@@H](C)O)C(=O)N1)[C@@H](C)O)C(C)C)C(=O)N[C@@H](Cc1ccc(O)cc1)C(=O)N[C@@H](CCC(N)=O)C(=O)N[C@@H](Cc1ccccc1)C(=O)N[C@H](C(=O)N[C@@H](CC(=O)O)C(=O)N[C@@H](CCCCN)C(=O)N[C@@H](CC(=O)O)C(=O)N[C@@H](CCCCN)C(=O)N[C@@H](CC(=O)O)C(=O)N[C@@H](CC(N)=O)C(=O)N[C@H](C(=O)N[C@@H](C)C(=O)N1CCC[C@H]1C(=O)N[C@@H](CCCNC(=N)N)C(=O)N[C@@H](CO)C(=O)N[C@@H](CCCCN)C(=O)N[C@H](C(=O)N[C@@H](CO)C(=O)N1CCC[C@H]1C(=O)N[C@@H](CCC(N)=O)C(=O)NCC(=O)N[C@@H](Cc1ccc(O)cc1)C(N)=O)[C@@H](C)CC)C(C)C)[C@@H](C)O` [h.AM (1-52), reference compound], for which the level at time molar at 24 h in data set [1] (setting [3]) stood at 0 nM; in data set [1] (10 nmol/kg subcutaneous single dose, 10 days later) it was 0 nM; in data set [1] (male, Wistar, plasma, sc, 10 nmol/kg subcutaneous single dose, 1 day later), 0.0067 nM. For the same compound, the “rapidly decreased blood pressure immediately after the administration” value in the data set with Wistar rat is on record as “rapidly decreased blood pressure was observed”.

For the compound “CH3O-PEG (20k)-(CH2)2—CH2-^αNH-(h.AM (1-52)) [Compound (4)]”, in the data set with Wistar rat, the “decrease in the blood pressure immediately after the administration, as compared to compound (2)” value is “further suppressed” and the “rapidly decreased blood pressure immediately after the administration” value was “not observed”.

For “CH3O-PEG (20k)-(CH2)5—CO-^αNH-(h.AM (1-52)) [Compound (2), reference compound]”, in the data set on Wistar rat, the “rapidly decreased blood pressure immediately after the administration” value was “not observed”.

In the case of “GL-2-branched CH3O-PEG (40k)-CO-^αNH-(h.AM (1-52)) [Compound (27)]”, the level at time molar at 24 h in data set [1] (10 nmol/kg subcutaneous single dose, 1 day later) was no less than 3.6 nM; in data set [1] (setting [3]), no less than 0.12 nM.

As for “GL-2-branched CH3O-PEG (60k)-CH2-^αNH-(h.AM (1-52)-Gly) [Compound (37)]”, in the data set with AM receptor, the “Intracellular cAMP concentration-increasing effect (%)” value is on record as 91****^) %. The level at time molar at 24 h in data set [1] (30 nmol/kg subcutaneous single dose, 1 day later) is no less than 34 nM; in data set [1] (30 nmol/kg subcutaneous single dose, 7 days later), no less than 1.6 nM; in data set [1] (30 nmol/kg subcutaneous single dose, 9 days later), no less than 0.11 nM. The “increase in the blood pressure compared to the control group” value in data set [2] is “suppressed”.
